{"source": "patent WO2002020615A2", "key": {"[1]": {"molecular_target": "human chemokine receptor 5 (CCR5) (human) (UniProt P51681)", "assay": "cell-based or functional assay"}, "murine CCR5 (murine)": {"molecular_target": "murine CCR5 (murine) (UniProt P51682)", "sequence (P51682 whole entry)": "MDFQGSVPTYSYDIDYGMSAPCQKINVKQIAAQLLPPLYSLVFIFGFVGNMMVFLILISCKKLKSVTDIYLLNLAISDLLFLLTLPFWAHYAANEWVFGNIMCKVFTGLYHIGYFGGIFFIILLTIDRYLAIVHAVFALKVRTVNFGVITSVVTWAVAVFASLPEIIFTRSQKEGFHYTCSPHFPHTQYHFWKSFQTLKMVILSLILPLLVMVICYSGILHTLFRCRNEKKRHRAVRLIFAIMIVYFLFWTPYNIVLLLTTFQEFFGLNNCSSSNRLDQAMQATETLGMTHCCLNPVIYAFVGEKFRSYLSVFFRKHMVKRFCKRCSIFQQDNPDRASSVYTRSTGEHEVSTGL", "assay": "cell-based or functional assay"}}, "data": [{"substance": "chemokine-toxin fusion protein RANTES-PE38", "values": [{"measurement": "cytotoxicity on CCR5 positive CHO cells (48 h): concentration of complete destruction", "setting": "[1]", "value": 2, "unit": "nM"}, {"measurement": "cytotoxicity on CHO cells expressing human CCR5 (40 h): concentration of complete killing", "setting": "[1]", "value": 10, "unit": "nM"}, {"measurement": "cytotoxicity on CHO cells expressing murine CCR5 (40 h, light microscopy)", "setting": "murine CCR5 (murine)", "value": 10, "unit": "nM"}]}]}
